± gives the uncertainty stated by the source.
Assay: amyloid nucleation score (Sup35N fusion, yeast selection) (log enrichment); library NNK3; higher = more nucleation; inactive = no reads after selection
Procedure, shortened: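 Peptides of 20 random codons fused to Sup35N were expressed in psi-negative yeast, induced 24 hours with 100 μM copper sulfate, then grown 7 days at 30°C on medium lacking adenine and uracil. Input and output plasmid inserts were Illumina-sequenced. Nucleation score is the DiMSum log enrichment of output over input reads, centred on the mode score of non-aggregating sequences, excluding sequences with under 100 input reads. Random libraries had three technical output replicates.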

Substance	amyloid nucleation score
KKSHCRTIYKSLV	inactive
KLCTVINRLYLHRGGNSNSQ	inactive
KLDSLPEYFSATLWLDMSVF	inactive
KLEMYVARSCDCAYDRCWGR	inactive
KLKVVVIKNICFG	1.82 ± 0.083
KLLSMGVSTKRRT	inactive
KLLSTRRCFRCLLGQWSLFM	1.17 ± 0.14
KLNGFPWRPAWHEVMAGWVW	inactive
KLYYIVRCEFCRDCKMAWGN	1.29 ± 0.094
KMDLFVRIVSCLVNGCQTTG	inactive
KMILRFFSI	1.52 ± 0.063
KNFQPKTS	0.082 ± 0.45
KNFSFKATDWIVKSSVARCR	inactive
KNIPFYIGWVEVSTAGARYP	inactive
KNTSIK	inactive
KNYCGKNEYVLCTD	inactive
KPPGLNRHYTSCDMLSWALN	inactive
KPSSFNDAIR	inactive
KPTWQKEFVR	0.969 ± 0.19
KPVYYQCLENISSFEC	inactive
KQCGTIG	inactive
KQGVILTNRVYAFALGSSTH	inactive
KQLHLMLIVQIVATKTVNAP	inactive

Substance	amyloid nucleation score
KQVKMGVA	inactive
KREECILWLPLGNLLYNVLR	inactive
KRLLVKVLLDVIGAYRDSSC	inactive
KRMWKGE	inactive
KRVDYCFMIGVMTCVNHPTE	inactive
KRVLEGRFITVSM	inactive
KSDVS	inactive
KSLSIRFYWVSPWTVVWDSR	0.872 ± 0.11
KSNVLP	inactive
KSSTNMEMRMSHLGLLIGEV	inactive
KSTRF	inactive
KSVKARYSDSSMW	inactive
KSYFANSG	inactive
KSYLVFDPWGPAKSLFYTDM	inactive
KSYMYILKWAVLVLCSRSGL	inactive
KSYSAWSTVRDSKPTVLGN	inactive
KSYWCNVGAIENT	inactive
KTKGICSSMLVFC	inactive
KTLIVVAVSFIWL	0.887 ± 0.19
KTLVRNMDNKPCRFSLTSNF	inactive
KTNRFHIDFAIDTPRLSLFL	inactive
KTYEETSDTYYFQVLFTNPI	inactive
KVCVIVVLLHTTRCQKFYQY	inactive

Substance	amyloid nucleation score
KVNTLRVEDIWTSQAFVCMV	inactive
KVRQARGILASEGIGQETVG	1.33 ± 0.14
KVSWMFYRCSDNNN	1.66 ± 0.074
KVVMGVGLQRDESGIEGQLG	inactive
KVYKLGVSRRSVKAT	inactive
KVYSIYTNKNFGCFDYNWCI	inactive
KWASFLFYFDVMSYSARELN	-0.32 ± 0.84
KWDSKFRYLADGHNQLPC	0.605 ± 0.38
KYGENDLRFENITYLFGV	inactive
KYNHIYVYKSIRCVQGVLDG	inactive
KYNPTMSNYSGLLWKIGVGT	inactive
KYNWLNKVSTIGTSKGSSIG	inactive
KYTVEVNFLAFLRHIYCTSG	inactive
KYYLALIYSKLRMIVSCFGF	0.033 ± 0.44
LAAEFTFMRPARGYFGNKVG	inactive
LACLIHS	inactive
LACPWLTLIGYVQIRCNFDG	inactive
LADWQMGVPRGLQVMVCTTL	inactive
LAFFTHNIYF	1.97 ± 0.1
LAFVANY	inactive
LAGSCMGLMCWVVDARAVGR	0.06 ± 0.64
LAGSSVVKLYGPVLRFFSSL	inactive
LALFVSCICVIVSELFFTMN	inactive

Substance	amyloid nucleation score
LARFMANLTGNC	inactive
LARLYYHFLEVHYVLCIC	inactive
LARPHDNSGCCSSNCDLRSC	inactive
LARRRSTCDICWLSYKATDL	inactive
LARVFASTGSSCSRSMNAMN	inactive
LASNDFTDVLHWC	inactive
LASRSHKHINATLAHLNPLL	inactive
LAVSGKEHAK	inactive
LAVVDCGYM	inactive
LAWVLMHSAKLGLKKRQAWG	inactive
LAYQGSGLIQQLAGLKHTTV	inactive
LCAQGYDLFALCKVYWLREW	inactive
LCDSGWELMYKLCTDKDMIL	inactive
LCDVQNTNNW	inactive
LCEKYFLRRFYFMTTGLSGR	inactive
LCETYYHHTARGLHLASLVS	inactive
LCFFVERRLKGYDVGLSNLL	inactive
LCGATCLMFMLHVKCTSGFE	inactive
LCHRY	inactive
LCHWFL	inactive
LCIFKVLF	0.969 ± 0.16
LCISKKVMNFSNASHGGQQC	inactive
LCITPNLKSFFESYVRFSEL	inactive

Substance	amyloid nucleation score
LCLCVRFFKAFNRFNYRRFF	inactive
LCLCYNLMSLLLLHLCREGQ	inactive
LCLFLSQMFSNRYEIFPLFV	inactive
LCLVLWVSK	inactive
LCSIVWRGIRDAYGQRYYVV	inactive
LCTKGYWFKAPNYLLSKLCF	inactive
LCWPGTVDWFQGWRKAG	inactive
LDAFRRLLEGASRTKCTF	inactive
LDEFY	inactive
LDGFSSKILGMFEEAVVYRM	inactive
LDLFSRNSETRAKSDRVWWT	inactive
LDRFENINRL	inactive
LDSFATRGYSWSLGIIVMKI	inactive
LDSYVDFLTYFSQKGSRHHL	inactive
LEASESGIVEVPQPNYCITP	inactive
LECILADIASCIQPRAYCIS	inactive
LEFRNHPMSYYTLVGQCVRK	-0.372 ± 0.8
LEGALRQDSCHKVPKLGQPV	inactive
LEKELRLCSKAWLSSQISIV	inactive
LELLRTERKRMKCLKPVLRV	inactive
LESSVMLLKRRIILVLCLHG	inactive
LETLVKPLELGSYFDFCCWA	inactive
LEVWSRRYWCHRLFNSIAMM	inactive

Substance	amyloid nucleation score
LFAIDNWVVKDSLVVWCEGR	inactive
LFCSYNRRGAHLAGCAR	inactive
LFCVPWVVISPHHSIHRIWV	inactive
LFDHYWLGSWIVENSYPSGE	inactive
LFEDKCGNPWRNY	-0.126 ± 0.88
LFFYNWVICRSNRYHGL	inactive
LFGFQNDCYMDNRYW	inactive
LFGYDSISLINRGCVGGFNV	inactive
LFHNCHGFFHTNNVPFVRWP	inactive
LFLGLVLAHPPDRVRLSTVL	inactive
LFLLNVAYCNCFT	3.27 ± 0.059
LFLMWRTYYVNILESSCVVC	inactive
LFLWKTTMTPGLHRSSVVGR	inactive
LFLYQLLSGHC	inactive
LFMEDVLRFGLLYLI	inactive
LFMKSVEMWNRGYLSITCMC	inactive
LFMLVAE	inactive
LFNLGICYTISNYSLSLEQS	2.1 ± 0.086
LFRDKDVDVVSSN	inactive
LFSLCWRCTLLKLYCPNWCY	inactive
LFYMLPIIVFAPVLMAWLSF	inactive
LFYSRGHLSGLGLGVMAPFI	inactive
LFYSTARCEKSRCVMGRMRG	inactive

Substance	amyloid nucleation score
LGAWVGVFMLKQ	inactive
LGDNLEGNIGLLL	inactive
LGGNMTCLSQDYLRTSKELL	inactive
LGKSKFMAGQFLFCYSSVVL	1.58 ± 0.12
LGLILIVLLVRPVFDSKRLD	inactive
LGPVIS	-0.46 ± 1.7
LGVALVTICVLRECGKILYI	-0.107 ± 0.68
LGYLRFVLIYQTCCQLTKSP	-0.617 ± 0.6
LGYPCFSKWFVYSRSIGLEG	inactive
LHASMLLLRNNRSRS	inactive
LHGHLGWWNVLDCPICLNFI	inactive
LHHAVVREWRFQKNVCRQLR	inactive
LHICTLYREVVVAAQCS	inactive
LHLGMRLV	inactive
LHLMWMPVTCGEVALCDGQS	inactive
LHLYNVDVNLIGPQVY	inactive
LHMCNS	inactive
LHMEG	-0.611 ± 1.1
LHNCPVDGWAAVSRSVVGRE	inactive
LHSFLRCDCSIARF	inactive

— the supplement of paper PMC12042874
